Source: paper PMC12186524

Legend:
[1] = target: ArbB2 Met160Ala (Coffea arabica)
[2] = target: ArbB2 Pro242Ala (Coffea arabica)

## GNTLKDFESKPGSFLWGYQG [ArbA2_(58–77) (ArbA2-FLWGY)]
[1]
  loss of activity (relative conversion of ArbA2-FLWGY to product) against ArbB2 (% loss of activity): 60
[2]
  loss of activity (relative conversion of ArbA2-FLWGY to product) against ArbB2 (% loss of activity): 90
